Three molecules from paper PMC5630700 (2017) can be followed below.

Assay [1] concerns the target purified recombinant MARV (Marburg Musoke) nucleoprotein polymer (Marburg virus Musoke, UniProt P27588 1-695). Put plainly: ELISA. For orientation: An ELISA detects its analyte on a solid surface through an enzyme-linked reagent.
Another assay addresses mbp-NP600 fusion protein (Marburg virus Musoke, UniProt P27588 601-695). Nature of the assay: ELISA.

purified recombinant MARV (Marburg Musoke) nucleoprotein polymer, sequence (P27588 whole entry, the tested form may be a part): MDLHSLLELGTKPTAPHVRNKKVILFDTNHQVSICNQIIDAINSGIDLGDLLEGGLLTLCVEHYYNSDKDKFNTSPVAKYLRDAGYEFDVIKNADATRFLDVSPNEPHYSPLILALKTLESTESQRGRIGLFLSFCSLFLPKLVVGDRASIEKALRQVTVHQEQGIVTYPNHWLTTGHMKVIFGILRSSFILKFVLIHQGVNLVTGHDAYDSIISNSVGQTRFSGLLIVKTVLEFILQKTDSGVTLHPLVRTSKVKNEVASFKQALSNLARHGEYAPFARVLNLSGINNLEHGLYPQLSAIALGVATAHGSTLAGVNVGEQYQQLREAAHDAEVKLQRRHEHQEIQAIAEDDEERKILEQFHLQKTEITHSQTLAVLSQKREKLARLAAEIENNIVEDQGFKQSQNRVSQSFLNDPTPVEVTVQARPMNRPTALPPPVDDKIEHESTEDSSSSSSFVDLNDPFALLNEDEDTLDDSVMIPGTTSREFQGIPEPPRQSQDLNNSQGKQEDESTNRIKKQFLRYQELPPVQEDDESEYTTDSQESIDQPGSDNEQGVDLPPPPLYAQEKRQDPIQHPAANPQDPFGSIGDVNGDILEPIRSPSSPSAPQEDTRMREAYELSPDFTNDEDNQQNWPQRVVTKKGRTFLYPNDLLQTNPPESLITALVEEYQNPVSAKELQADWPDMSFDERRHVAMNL
mbp-NP600 fusion protein, sequence (P27588 601-695): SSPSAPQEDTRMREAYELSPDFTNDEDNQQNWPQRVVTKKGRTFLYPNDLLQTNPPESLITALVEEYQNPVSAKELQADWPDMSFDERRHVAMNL

B1: sdAb C–Gaussia luciferase fusion (glucibody, pecan35) (VHH)
VHH: KVQLQESGGGLVQVGGSLRLSCKASGFTFRSSAMGWYRRAPGKQRELVASLTTTGTADYGDFVKGRFTISRDNAENTVDLHMNSLKPEDTAVYYCHEDPYGMESLRYWGQGTQVTVSS
What is called EC50 is the midpoint of the concentration-response curve. Consider B1, for which the EC50 is 0.0041 µM in assay [1] and 0.0119 µM with mbp-NP600 fusion protein.

B2: sdAb A–Gaussia luciferase fusion (glucibody, pecan35) (VHH)
VHH: EVKLQESGGGLVQAGESLRLSCAVPPEVFDIRTVAWYRQVPLGKGRELLSSITPWNKTTYEDSVKDRFTISRDNAKYTVYLQMNDLKPEDTAVYYCAQGWGIASMRYWGQGTQVTVSS
As to B2, the EC50 in assay [1] worked out at 0.0028 µM; with mbp-NP600 fusion protein it was 0.0141 µM.

B3: sdAb B–Gaussia luciferase fusion (glucibody, pecan35) (VHH)
VHH: KVQLQESGGGLVQAGGSLRLSCAASGGTFSINTLGWYRRAPGKEREFVARISSGGITRYADSVKGRFTISRDNGKNTVYLDMNSLKPEDTAVYYCMYRNWGGGLDVYWGQGTQVTVSS
On to B3, for which the EC50 came to 0.0108 µM in assay [1] and 0.162 µM in the assay with mbp-NP600 fusion protein.
